Results on 16 sequences are retold here after a protein production outcome set (Wang et al. 2014).
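Note: failed if final PepcDB status was selected cloned or expressed and not failed if soluble or beyond.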

The series can be described thus: label from the status in PepcDB records.
“MEENLISMREDHSFHVRYRMEASCLELALEGERLCKSGDCRAGVSFFEAAVQVGTEDLKTLSAIYSQLGNAYFYLHDYAKALEYHHHDLTLARTIGDQLGEAKASGNLGNTLKVLGNFDEAIVCCQRHLDISRELNDKVGEARALYNLGNVYHAKGKSFGCPGPQDVGEFPEEVRDALQAAVDFYEENLSLVTALGDRAAQGRAFGNLGNTHYLLGNFRDAVIAHEQRLLIAKEFGDKAAERRAYSNLGNAYIFLGEFETASEYYKKTLLLARQLKDRAVEAQSCYSLGNTYTLLQDYEKAIDYHLKHLAIAQELNDRIGEGRACWSLGNAYTALGNHDQAMHFAEKHLEISREVGDKSGELTARLNLSDLQMVLGLSYSTNNSIMSENTEIDSSLNGVRPKLGRRHSMENMELMKLTPEKVQNWNSEILAKQKPLIAKPSAKLLFVNRLKGKKYKTNSSTKVLQDASNSIDHRIPNSQRKISADTIGDEGFFDLLSRFQSNRMDDQRCCLQEKNCHTASTTTSSTPPKMMLKTSSVPVVSPNTDEFLDLLASSQSRRLDDQRASFSNLPGLRLTQNSQSVLSHLMTNDNKEADEDFFDILVKCQGSRLDDQRCAPPPATTKGPTVPDEDFFSLILRSQGKRMDEQRVLLQRDQNRDTDFGLKDFLQNNALLEFKNSGKKSADH”: the protein production entry is reported as “failed”.
Under “MPGTNNEATRKEEVKKIVENRRRKAELIREQQIKKRNTIIAIGVGILVVLILVMVLAKSCSSGKKPAKTSATTAKQITTVAQTTVQETTTAEEYMYTTDVLNLRKSASAKSKLITQIGAGKKVQVISENGKWCQIKYGKDTGYVMKKYLSYSNMLD” stands “failed”; under “MSTLIQDLKAQAGIFESDADQVHGLLAEFPDPGALLHAAEAVREEGYRHFDTHSPFPIHGMDEAMGLGNASAVGVLTFFGGITGCVVAYLLQWWTAAVDYPLNISGKPFFAVEPSVPIMFELTILFAAFGTVAGMFALNGLPRPYNPLFYSDRFKGATDDRFFLHIAASDDEFDVEDSAAMLQRLGAHHLELVKDDGTVDA”, “failed”; under “MIRRALLIASLAALAGCAGLDAIQNAYQGIQDYFTGKDNAEPPAPLAEITPQVKADKLWMAEIGDGYDDQGINLGPAVDDSRVFAAERHGTVQAFNRLTGEKLWSVDHEMDLSAGPVFDDGELFLATAEGAVIVLNAADGALVWKSTLASEILSVPAVADDVVVVRGTNGHLTGLDRKSGATLWYFERHAPPLAIRSRGAPIIAGDLVIDGFGGGKVSAIQLKEGRLDWEANVSLPHGRSEIERLVDLSATPVVRNDVVFVSGYQGGTASLGLNTGEVQWKRESISSPAGMTADRRELYVTDANADLWQLAIRNGEDQWKQTELHQRRLTAPALVKDYLVVGDFEGYLHVLNKEDGRIVGRVQVTDAPIEYPPVVYGDIVYVYATDGTLAAITVD”, “failed”.
In the case of “MSPISEPSRLDPVRPGQLLMIDLPGPELDKDTAAYLREHGIGAVCLFGKNVESAEQLRRLCADLREVMGEHALIAIDHEGGAITRPEFWPFAPSAMSLGAADDQQLTEDVNAALARQLRSVGINWNFTPVLDINVNPANPVIGDRAYGSDAARVTRHGRAALAGHTREGVAPCAKHFPGHGDTHQDSHLALPRVSKSRAELDAGELAPFRALLPETPAIMTAHIVYDALDAEHPATLSPRILTGLLREEWGYDGVIVTDSMGMQAIDANYGRGEAAVRALRAGADLVMALGRREVQQATLAAVAEYVPENQAAVATKRERLRALARRFPAQADETLDPQADAALLADA” it was “not failed”; in that of “MNLFYRCRFFLFNNKVKNRGRGNKVVTNSASAKACTILFNGNNNTVILGESASLRGCLIIMSGDDHVLEIGAHTSIYKSNIAFEDHHCLISIGDYTTIQENGGISAVEPYSKIIIGKRCMFSVDVDIRNTDSHSIIKLDTGERINPGKNIFIDDKVWLGAYVQVLKGVSIGNNSIVGIRSLVTKDIPSHALAVGVPAKVIKTNVDWREERI”, “failed”; in that of “MILNLDTNIFNHGLSRHNILAFSQGFPIGLPCRNWIEVGLRLRLRLLLELAVGNFPQGFKIHLSGSFQAVRLALFSSFTSLRTDELLLIETRPSYLSSVQVWGKGRPLLLLLTKREQPALQANREPPARFESLRAGKQEEADRAKASPLLASALPEAVEVGTRSRRSRGSSCGFRVKLAHCQKANRSSYLDQRTLIPGRQQGLRVEGMNQVSWLRIGGMGVRSVPSSPSPRLRLLETGDRVFLRRLAASPFNKGFQWQQTAPQDEAKNGVGGLPVVRASKWLAGPRKHNERDDRSSTRPEIDVLLP”, “failed”.
As for “MHPPIVMSTLPPSVAPPIGTAPQRHSLVSLRRLSWLRWALLAGQALLLVSCESLAGIALPYKPLLFLFAVQTVFNVFTVARLHWHTRHGTAPSDAELMVQMMVDLTALSAILFYTGGATNPFVSFYLPGLAIASAILPWRLVVTLAAYALACYSMLLLEYIPLDLHNPDNAVNYHLAGMWLNFVASAVMIAFFVARLSNALRQRDAQLNEARELLLREARVEALNDQAAAVAHEIGTPLATLAVIAGELRADAENTNRSDTPVADYQADLRTMEQQLELCRSILARLRADHETLAPQRIDAWLAPFVERWQLRHPQASLQAGAAPDAAAQAVDTARISQILTIALDNAARSQQAAGHDHRQGPPLRLDIAREADALVYRVTDHGHGLPPGLRARLGESPVASAHGGQGIGLYLAQSAARQLGGQISWHDNPAGGTVLELRLPLTAASERAIAAQPDFQP”, the protein production result is reported as “failed”.
Under “MTGTYTELIEGSERLSGLTDVDEVIKDLSRLLRKLVKTRWIAVYFFDRERRDFAPARSTGLPASFLPVFREMPLAPDKIPLLKSMLRKRQHLMLTDPGSSDLLTPKLRKLLRNLCVLAVPMVVRTQVIGAVFMARTRDNPPFSDAETAIIRDLVSHAALVVSHMQLFDE” stands “not failed”; under “MSVAAGGPAGAAIPESRLMALGIIGGLGGIYASTVNPVIGPVFASLGAVCAIIWGADAIRRVASYGLGTGVPSIGYMSVSIGIVGVVAGLASVFTLPALAAPVVGLILAMILGVVVAVLGKKIVKMKIPILEKCTAEISGAAALSVLGFSAAIAGSYTMQAVLTSVIATGFIGLLFILNTMAIQHPFNACLGPNENQTRTLKLAASTGFISMAIAGLLGIGLNPGWWLVSLVGALCWVVAFKSFVSASFEEAASVKWSGLWPKEEEQ”, “failed”; under “MTLLEAISNAVANQDKVDSQSDYPIPLSHDGIFANLKPKLENPNLGTLVNPISGWGISESDVEVIDLGKKFSSKLKRKLKDTNGFVKDEFVKMLKQFLEKIGEKVGISEAESEMVLGDQAGSEIQILVEKNGFLMGRDVSGLVLKGCISLEMWELVEILISNSLVDHSSYSYLVSNLVEKQRSDLLCVVIKEASDLGATELLSILKYFLCPSKEAISTMAKVREEWESQAMLAIEKVSNTELSKKSKVAEEASILLMVAHDGFSTSELCLHYLLASRNVDEVMFASAVSKLNGNEMGSFIRYLSKWMKKYEMFPQAGPCPKAASKLGLKLCNWVPELTDITKCLGLLIDENFSTLVLYSDLHEELKSIARVADGLASESKLSCFVANVVESLKLGAARN”, “failed”.
Under “MTDRYIAFANSPVGRRLVGAVGLPSPLRLERWQAGRVRPVDGPLVIGGSGALAEAVLPFAGKLTDAVFAAVDGQFELPRWTAEHSPRAKAVLFDASGLTRFEQLVALRDFFQPVLKGLDKCPKVVVLGRPPESLKDPVTASVQRSLEGFTRSLGKEIRRGGNVQLLYVGKGAEDQLEGALRFFLSPKSAYVSGQVIRLAANSAQVHDWSKPLAGQRALVTGAARGIGAAIAETLARDGAEVVLLDVPPAREALEGLAARLGGRAVALDICAADAGQQLVEALPEGVDIVVHNAGITRDKTLAKMSSDFWNSVINVNLNAPQVLTQALLDGGKLHDNGRVVLLASISGIAGNLGQSNYAVSKAGLIGLAQAWAPALGKRGITINAVAPGFIETQMTAAIPLTIREAGRRMNSMSQGGLPQDVAETVAWFAQPSSGAVSGQVLRVCGQSLLGA” stands “failed”.
In the case of “MRARRRVMAKREALRAGSKASRQATPNSQPELEGKLFAEQDAGERTHEKLVFVPRVDIYETETGLVVVADLPGVGPEGLEVTLEKRVLSIYGRVKEDTPEGYSQAYREYEVGDFERQFTLSGDFEINGIEANIKDGVLHLAIPRAPEAAAKRIEVRSVS” it was “failed”; in that of “MDYPNQTSSALFHSSEPLGLNLVDYLRVLLSQYWLIIGIAIGATSLTFGVSLLLPQKFRATATLQIERDVPKVMNVDNLIPVESPLDRDFYQTQYQLLQSRSLARAVIRKMNLGREPMFKPLVDKVLSKVQSLPVNTRNTAIESALIEMMLNSLKIEPILNSRLVYVHFDSHDPTLSAKVANAYAKMFIENNQQRRSNAFSFAMKYLAGRLEQLRIKVDKSERNVVAYSTDEKIVSVGDEKPSLSAQNLSDLNALLASAQNERIRAEASWRQASIGDGLSIPQVLSNLLVQSLRTDQANMVNEYQQKLSMFKPEYPEMQRLKARIKENTKQINAEVFNIRQSLKAQYEAALRQENLLNDRIAVLEKDELDLKTRLIRYNLLEREAETDRQLYDALLQRYKEISVLGDVGSNNVTVVDAADIPSRPISPNLLMNTILGGIFGVFLGLTVAMVRYSMHGAKRINVMSVE”, “failed”; in that of “MTAEVLIGDGDVRLSPHPLRAIVLGEVHARPFTALSLPARVLHFAFDTSGQRAAADRAAMISFCESRGLQPPPPGEKHHRANFGTTTLRWEQHSEFTTYTWEIPADPAGVPFHPEASSLASPMRLLPQPGPLLVAVDLHAMPEDPPRTSPERLFDRASLAVAENSDGAALFATDFQPGPSGFVRVLVIDRGMSAERAGALVQRVLEVETYRTLALLGLPEAQRLAPSIAASERRLAEVTAEMRRAGDLANNNKLLQELTELAAEVEAGAAASLYRFGASRAYDEIMNGRLATLGERKVGGLPTWSSFLARRMKPAMRTCATTEARQSDLSLKLARAANLLRTRVDVEVEQQNQELLKSMNARTRLQLRLQTTVEGLSTAAITYYVVGLFGYMVKGAAEAGRLKIDPNLLTAGFVPIAALVIWWTIRRIRKKHIPDVD”, “failed”.
For “MEEKANTGQVIIVLTEHLTFGTLLIPYMAEKSDDGTYQLIEQAFHASPEAISRMNEAEQQAIDIASHYTEKYLMGIYSREKTVSRFLRKLSEDPERVKNNIRPFIEKKMQEMLTLIRHHNLPLYQKQVGSKLLYAHHAYHVHPHDVEIRFTFLADETNFRYQLQCYYDGQPLSLSEQKPVIVLTSSPSALLLGMELYFFPHIESVRILPFTKKKKISVPASQIEKYIDNIVIPIARYHEITTQGLNIIEETYACEAVLSLEDTIYDEQMLRLSFRYGDQSFTPDTVTEMKKIIYRNDFGEIFFFRRDSDAEEEKLRMLTDSGLQRVSDVHFKLSPDAPEKTITEWISTYREMLQQSFLLTGNMGNTPYCLDEIRIEQSCDDEPDWFELHITVVIGNLRIPFSRFRKHILEEKREFLLPDGRMILLPEEWFSKYGNLLELGTQTETGIRLKPTFVGAVQSALEENGPKNLLFKREIRNVPVPQGLNAKLRPYQQKGFSWMVQLNKQGFGGCLADDMGLGKTLQTLTLLQYIYKPLSPDAVTAPMKPVFTETTASDSQPDKECTANNPPVREQIADAEGQFSLFSFSSEDELLPDAREIREKNRPKEDDHRQEHGKNSRKPATLIVVPTSLLHNWRREAKRFTTLAIAEYNSNTAFPKGHPEKFFNHFHLIFTTYGMMRNNIDILRSYTFEYIVLDESQNIKNNDSLTFRSVIQLQGKHRIALTGTPIENSLKDLWAQFRFLQPDLLGEESTFHKQFIIPIRQGNVRMEKRLQQIIAPFILRRSKSEVAPELPPLTEETIYCAMSEKQGESYEQEKNSLRNILLQQPENKDRYHMFSILNGILRLRQLACHPQLIFPDFDGVSGKTEQIIDTFDTLRSEGHKVLIFSSFVRHLEILAEVFRQRGWKYALLTGSTNNRPSEIAHFTEQKDVQAFLISLKAGGVGLNLTQADYVFIIDPWWNPAAESQAIARAHRIGQDKQVIAYRFITQNSIEEKILQLQEDKRRLAETFITDSEALPALSNEQWADLLK”, the protein production entry was “failed”.
